Among the data in patent US20240360201A1 (BIOCYTOGEN PHARMACEUTICALS BEIJING, published 2024) are Kd, koff and kon values, retold here.

For orientation: Kd means a measure of binding affinity in units of concentration. A low value points to tighter binding. A word on the koff: it is the first-order rate constant of dissociation. Higher therefore signals fast dissociation. A word on the kon: it is the second-order rate constant of association. Low readings indicate slow association, high ones fast association.

The labels stand for the following.
B1: C40-6A7 (IgG2) (antibody, V domains shown)
VH: QVQLVQSGAEVKKPGASVKLSCKASGYTFISYYIYWVKQAPGQGLEWIGGINPRNGGTNFNEKFKSRATLTVDTSISTAYMELSRLRSEDTAVYYCTRHGNGVYWGQGTTLTVSS
VL: DVVMTQSPLSLPVTLGQPASISCRSSQSLLHSNGNTYLHWYQQRPGQSPNHLIYQVSNRFSGVPDRFSGSGSGTDFTLKISRVEAEDVGVYFCSQTTHVPWTFGGGTKVEIK
notes: IgG2; also called original anti-CD40 monoclonal antibody
B2: PDL1-C40-6A7-FV3A1 (IgG1) (bispecific antibody)
heavy: EVQLLESGGGLVQPGGSLRLSCAASGFTFSSYIMMWVRQAPGKGLEWVSSIYPSGGITFYADTVKGRFTISRDNSKNTLYLQMNSLRAEDTAVYYCARIKLGTVTTVDYWGQGTLVTVSSASTKGPSVFPLAPSSKSTSGGTAALGCLVKDYFPEPVTVSWNSGALTSGVHTFPAVLQSSGLYSLSSVVTVPSSSLGTQTYICNVNHKPSNTKVDKKVEPKSCDKTHTCPPCPAPELLGGPSVFLFPPKPKDTLMISRTPEVTCVVVDVSHEDPEVKFNWYVDGVEVHNAKTKPREEQYNSTYRVVSVLTVLHQDWLNGKEYKCKVSNKALPAPIEKTISKAKGQPREPQVYTLPPSRDELGGGGSGGGGSDVVMTQSPLSLPVTLGQPASISCRSSQSLLHSNGNTYLHWYQQRPGQSPNHLIYQVSNRFSGVPDRFSGSGSGTDFTLKISRVEAEDVGVYFCSQTTHVPWTFGCGTKVEIKGGGGSGGGGSGGGGSGGGGSQVQLVQSGAEVKKPGASVKLSCKASGYTFISYYIYWVKQAPGQCLEWIGGINPRNGGTNFNEKFKSRATLTVDTSISTAYMELSRLRSEDTAVYYCTRHGNGVYWGQGTTLTVSSGGGGSGGGGSTKNQVSLTCLVKGFYPSDIAVEWESNGQPENNYKTTPPVLDSDGSFFLYSKLTVDKSRWQQGNVFSCSVMHEALHNHYTQKSLSLSPGK
light: QSALTQPASVSGSPGQSITISCTGTSSDVGGYNYVSWYQQHPGKAPKLMIYDVSNRPSGVSNRFSGSKSGNTASLTISGLQAEDEADYYCSSYTSSSTRVFGTGTKVTVLGQPKANPTVTLFPPSSEELQANKATLVCLISDFYPGAVTVAWKADGSPVKAGVETTKPSKQSNNKYAASSYLSLTPEQWKSHRSYSCQVTHEGSTVEKTVAPTECS
notes: IgG1
B3: PDL1-C40-6A7-FV3A2 (IgG1) (bispecific antibody)
heavy: EVQLLESGGGLVQPGGSLRLSCAASGFTFSSYIMMWVRQAPGKGLEWVSSIYPSGGITFYADTVKGRFTISRDNSKNTLYLQMNSLRAEDTAVYYCARIKLGTVTTVDYWGQGTLVTVSSASTKGPSVFPLAPSSKSTSGGTAALGCLVKDYFPEPVTVSWNSGALTSGVHTFPAVLQSSGLYSLSSVVTVPSSSLGTQTYICNVNHKPSNTKVDKKVEPKSCDKTHTCPPCPAPELLGGPSVFLFPPKPKDTLMISRTPEVTCVVVDVSHEDPEVKFNWYVDGVEVHNAKTKPREEQYNSTYRVVSVLTVLHQDWLNGKEYKCKVSNKALPAPIEKTISKAKGQPREPQVYTLPPSRDELTGGGGSGGGGSDVVMTQSPLSLPVTLGQPASISCRSSQSLLHSNGNTYLHWYQQRPGQSPNHLIYQVSNRFSGVPDRFSGSGSGTDFTLKISRVEAEDVGVYFCSQTTHVPWTFGCGTKVEIKGGGGSGGGGSGGGGSGGGGSQVQLVQSGAEVKKPGASVKLSCKASGYTFISYYIYWVKQAPGQCLEWIGGINPRNGGTNFNEKFKSRATLTVDTSISTAYMELSRLRSEDTAVYYCTRHGNGVYWGQGTTLTVSSGGGGSGGGGSKNQVSLTCLVKGFYPSDIAVEWESNGQPENNYKTTPPVLDSDGSFFLYSKLTVDKSRWQQGNVFSCSVMHEALHNHYTQKSLSLSPGK
light: B2 light
notes: IgG1; scFv inserted between EU 359 and 360

Sequence of human CD40 (hCD40-his) (P25942 21-193 limits assumed): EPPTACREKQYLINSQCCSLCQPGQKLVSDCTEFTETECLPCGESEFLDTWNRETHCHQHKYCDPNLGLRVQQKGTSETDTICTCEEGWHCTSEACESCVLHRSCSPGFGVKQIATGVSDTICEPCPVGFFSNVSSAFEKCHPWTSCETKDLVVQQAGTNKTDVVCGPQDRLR

This assay addresses human CD40 (hCD40-his) (human, UniProt P25942 21-193). Put plainly: SPR Biacore T200; binder captured on protein A chip, target as analyte. Here is the method:
Binding affinity to human CD40 of the obtained fusion proteins PDL1-C40-6A7-FV3A (IgG1), PDL1-C40-6A7-FV3A-IgG4, PDL1-C40-6A7-FV3C (IgG1), PDL1-C40-6A7-FV3A1 (IgG1), PDL1-C40-6A7-FV3A2 (IgG1), and PDL1-C40-6A7-FV3A3 (IgG1) were determined by surface plasmon resonance (SPR) using Biacore™ T200 biosensor equipped with pre-immobilized protein A sensor chips. The original anti-CD40 monoclonal antibody C40-6A7 IgG2 (6A7, VH SEQ ID NO: 91, VL SEQ ID NO: 92), which the scFV was derived from, was used as a control.
In turn, B1 returned a Kd of 3.09 nM, a koff of 0.00171 s⁻¹ and a kon of 554000 M⁻¹ s⁻¹.
Taken in the same sequence, the figures for B2 were 0.63 nM, 0.000388 s⁻¹ and 616000 M⁻¹ s⁻¹.
For B3 the same measures were 0.847 nM, 0.000375 s⁻¹ and 443000 M⁻¹ s⁻¹.
